Laboratory results published in paper PMC8265735 (Biopolymers, 2021).
Read-outs that look alike come from different tables or passages of the source.

Legend:
SAXS [1] = target: the molecule itself; assay: SAXS
SAXS [2] = target: the molecule itself; assay: SAXS; remark: listed apart in the source

B1: Hemoglobin III (HbIII) from Lucina pectinata, oxy form (natural protein, Lucina pectinata (Phacoides pectinatus), UniProt P41262 1-153, looked up)
chain: MSSGLTGPQKAALKSSWSRFMDNAVTNGTNFYMDLFKAYPDTLTPFKSLFEDVSFNQMTDHPTMKAQALVFCDGMSSFVDNLDDHEVLVVLLQKMAKLHFNRGIRIKELRDGYGVLLRYLEDHCHVEGSTKNAWEDFIAYICRVQGDFMKERL
stoichiometry N (SAXS [1]): 2 | stoichiometry N (SAXS [2]): 4
